From the supplement of paper PMC9233669
Fewer inactive variants are shown than the library holds.

Experiments:
biotinyl-Leu-oxazolone = test: self-aminoacylation, catalytic enhancement (BLO) (fold over background); higher = more active; k-Seq, kA / k0A0; sequences stand for … in GGGAAUGGAUCCACAUCUACGAAUUC…UUCACUGCAGACUUGACGAAGCUG
Method in brief: (§1)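 Mutagenized RNA pools with a 21-nt variable region (0.43 μM) were reacted with each biotinyl-aminoacyl-oxazolone at 2–1250 μM for 90 minutes at room temperature, in 50 μL HEPES/NaCl/KCl/MgCl2/CaCl2 buffer containing 5% acetonitrile at pH 6.9–7.0. RNA captured on streptavidin was quantified by triplicate qPCR and by Illumina sequencing. The fraction reacted for each sequence was fit to a pseudo-first-order model with bootstrapping, and catalytic enhancement is the median kA divided by the uncatalyzed rate, taken as the low-activity peak of a bimodal Gaussian fit.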

biotinyl-Ile-oxazolone = test: self-aminoacylation, catalytic enhancement (BIO) (fold over background); higher = more active; k-Seq, kA / k0A0; sequences stand for … in GGGAAUGGAUCCACAUCUACGAAUUC…UUCACUGCAGACUUGACGAAGCUG
Method in brief: as §1

biotinyl-Phe-oxazolone = test: self-aminoacylation, catalytic enhancement (BFO) (fold over background); higher = more active; k-Seq, kA / k0A0; sequences stand for … in GGGAAUGGAUCCACAUCUACGAAUUC…UUCACUGCAGACUUGACGAAGCUG
Method in brief: as §1

biotinyl-Trp-oxazolone = test: self-aminoacylation, catalytic enhancement (BWO) (fold over background); higher = more active; k-Seq, kA / k0A0; sequences stand for … in GGGAAUGGAUCCACAUCUACGAAUUC…UUCACUGCAGACUUGACGAAGCUG
Method in brief: as §1

biotinyl-Val-oxazolone = test: self-aminoacylation, catalytic enhancement (BVO) (fold over background); higher = more active; k-Seq, kA / k0A0; sequences stand for … in GGGAAUGGAUCCACAUCUACGAAUUC…UUCACUGCAGACUUGACGAAGCUG
Method in brief: as §1

biotinyl-Met-oxazolone = test: self-aminoacylation, catalytic enhancement (BMO) (fold over background); higher = more active; k-Seq, kA / k0A0; sequences stand for … in GGGAAUGGAUCCACAUCUACGAAUUC…UUCACUGCAGACUUGACGAAGCUG
Method in brief: as §1

Sequence	self-aminoacylation (biotinyl-Leu-oxazolone)	self-aminoacylation (biotinyl-Ile-oxazolone)	self-aminoacylation (biotinyl-Phe-oxazolone)	self-aminoacylation (biotinyl-Trp-oxazolone)	self-aminoacylation (biotinyl-Val-oxazolone)	self-aminoacylation (biotinyl-Met-oxazolone)
CUUCACCUAGGUGAUCGGGUG [Fam2.2 aminoacylation ribozyme variant]	4.03	3.56	20.6	4.93	3.9	3.91
CUUCACCUAGGUUAUCGGGUG [Fam2.2 aminoacylation ribozyme variant]	4.8	3.13	12.2	3.63	3.51	5.11
CUUCACCUCGGUCAUCGGGUG [Fam2.2 aminoacylation ribozyme variant]	5.57	3.54	44.6	5.07	4.37	5.17
CUUCACCUUGGUCAUCGGGUG [Fam2.2 aminoacylation ribozyme variant]	5.93	3.13	45.5	5.5	4.27	5.39
CUUCUCCAAACAAUCGGUCUG [Fam1A.1 aminoacylation ribozyme variant]	0.723	0.67	1.26	0.962	0.831	0.772
CUUCUUCAAACAAUCGAUCUG [Fam1A.1 aminoacylation ribozyme variant]	0.597	0.624	1.98	0.841	0.647	0.672
CUUCUUCAAACAAUCGGACUG [Fam1A.1 aminoacylation ribozyme variant]	0.698	0.822	7.56	3.43	0.677	0.652
CUUCUUCAAACAAUCGGGCUG [Fam1A.1 aminoacylation ribozyme variant]	1.43	1.29	5.81	4.55	1.06	1.25
CUUCUUCAAACAUUCGGUCUG [Fam1A.1 aminoacylation ribozyme variant]	1.26	1.03	1.05	1.39	1.23	1.15
CUUCUUCAAAGAAUCGGUCUG [Fam1A.1 aminoacylation ribozyme variant]	1.07	0.956	3.04	2.95	0.889	1.05
CUUCUUCGAACAAUCGGUCUG [Fam1A.1 aminoacylation ribozyme variant]	0.706	0.627	0.708	0.443	0.743	0.768
CUUCUUCUAACAAUCGGUCUG [Fam1A.1 aminoacylation ribozyme variant]	0.571	0.732	0.727	0.581	0.729	0.623
GAAUUUGCUAAUAGUCGCAAG [Fam3.1 aminoacylation ribozyme variant]	1.38	1.81	2.52	1.79	1.53	1.51
GAGUGUGCUAAUAGUCGCAAG [Fam3.1 aminoacylation ribozyme variant]	1.36	1.77	9.21	3.11	1.57	1.51
GAGUUUGCAAAUAGUCGCAAG [Fam3.1 aminoacylation ribozyme variant]	1.02	1.22	1.83	0.87	0.746	0.838
GAGUUUGCUAAUACUCGCAAG [Fam3.1 aminoacylation ribozyme variant]	1.01	1.03	1.09	1.12	1.07	0.939
GAGUUUGCUAAUAGUCCCAAG [Fam3.1 aminoacylation ribozyme variant]	0.812	1.05	4.57	1.64	1.1	1.33
GAGUUUGCUAAUAGUCGCAAC [Fam3.1 aminoacylation ribozyme variant]	0.998	1.4	1.19	1.2	1.19	1.31
GAGUUUGCUAAUAGUCGCAUG [Fam3.1 aminoacylation ribozyme variant]	1.25	1.59	2.24	1.17	1.44	1.59
GAGUUUGCUAAUAGUCGCCAG [Fam3.1 aminoacylation ribozyme variant]	1.47	2.51	2.04	2.6	1.69	2.45
GAGUUUGCUAAUAGUCUCAAG [Fam3.1 aminoacylation ribozyme variant]	0.855	1.32	6.85	2.43	1.08	0.852

Sequence	self-aminoacylation (biotinyl-Leu-oxazolone)	self-aminoacylation (biotinyl-Ile-oxazolone)	self-aminoacylation (biotinyl-Phe-oxazolone)	self-aminoacylation (biotinyl-Trp-oxazolone)	self-aminoacylation (biotinyl-Val-oxazolone)	self-aminoacylation (biotinyl-Met-oxazolone)
GAGUUUGCUAAUAUUCGCAAG [Fam3.1 aminoacylation ribozyme variant]	1.46	2.04	1.73	1.62	1.36	1.45
GAGUUUGCUAAUGGUCGCAAG [Fam3.1 aminoacylation ribozyme variant]	0.903	0.99	2.82	1.16	1.02	0.779
GAGUUUGGUAAUAGUCGCAAG [Fam3.1 aminoacylation ribozyme variant]	1.73	1.94	3.41	2.36	1.55	1.75
GAUCACCUAGGUCAUCGGGUG [Fam2.2 aminoacylation ribozyme variant]	3.71	3.45	17.2	5.58	3.54	3.44
GAUUUUGCUAAUAGUCGCAAG [Fam3.1 aminoacylation ribozyme variant]	1.82	1.99	2.53	2.99	1.83	2.2
GCACAAUUCAAGCAAUCGGUC [Fam1B.1 aminoacylation ribozyme variant]	1.79	2.1	3.04	3.3	1.94	1.81
GCACACUUCAACCAAUCGGUC [Fam1B.1 aminoacylation ribozyme variant]	2.93	2.39	60.5	44	2.43	2.02
GCACACUUCAAGCAAGCGGUC [Fam1B.1 aminoacylation ribozyme variant]	2.06	2.42	3.91	3.01	2.54	1.93
GCACACUUCAAGCAAUCGCUC [Fam1B.1 aminoacylation ribozyme variant]	2.82	3.18	12.2	4.76	2.92	2.84
GCACACUUCAAGCAAUCUGUC [Fam1B.1 aminoacylation ribozyme variant]	0.708	0.87	1.22	0.902	0.867	0.605
GCACACUUCAAGCAAUUGGUC [Fam1B.1 aminoacylation ribozyme variant]	1.3	1.47	2.06	1.94	1.22	1.45
GCACACUUCAAGCUAUCGGUC [Fam1B.1 aminoacylation ribozyme variant]	1.35	1.48	1.47	1.81	1.48	1.36
GCACACUUGAAGCAAUCGGUC [Fam1B.1 aminoacylation ribozyme variant]	1.29	1.45	1.46	1.99	1.4	1.11
GCACAGUUCAAGCAAUCGGUC [Fam1B.1 aminoacylation ribozyme variant]	2.04	2.44	4.42	4.48	2.07	1.98
GCACGCUUCAAGCAAUCGGUC [Fam1B.1 aminoacylation ribozyme variant]	3.62	2.55	120	60.1	2.74	2.62
GCAGACUUCAAGCAAUCGGUC [Fam1B.1 aminoacylation ribozyme variant]	4.28	3.19	119	49.8	2.67	2.82
GCAUACUUCAAGCAAUCGGUC [Fam1B.1 aminoacylation ribozyme variant]	2.19	2.35	19.8	18	2.01	2.03
GCUCACCUAGGUCAUCGGGUG [Fam2.2 aminoacylation ribozyme variant]	6.79	5.39	35.1	9.1	5.77	6.13
GGGUUUGCUAAUAGUCGCAAG [Fam3.1 aminoacylation ribozyme variant]	2.45	2.32	12.3	6.82	2.01	1.89
GUAACCCUGGUCAUCGAGUGA [Fam2.1 aminoacylation ribozyme variant]	15.6	7.01	75.7	15.1	6.13	15.2
GUACUUCAAACAAUCCGUCUG [Fam1A.1 aminoacylation ribozyme variant]	1.45	1.49	2.63	2.16	1.24	1.02
